The values below come from PMC4764080 (Cell, 2009).

In one experiment the test system is PLCγ pY783. Kind of experiment: Tyrosine phosphorylation of PLCγ. The conditions noted are these: L6 myoblasts stably expressing FGFR1; 100 ng/mL FGF, 5 min, 37 °C; anti-pY783 (PLCγ) immunoblot. Type of experiment: cell-based. (In general: Immunoblotting shows a protein as a band on a membrane.)
For experiment [1], the target named is FGFR1-3P (trisphosphorylated cytoplasmic region of FGFR1: tyrosine kinase domain and C-terminal tail) (UniProt P11362). Description: ITC. In general terms: In ITC the heat of successive injections is recorded.
Experiment [2] shares this target. Description: SPR. On the technique in general: SPR reads the build-up and loss of mass on a sensor chip optically.
For experiment [3] the target is unchanged. Kind of experiment: SPR. The source holds these as a separate data set.
Experiment [4] concerns the target pY766 peptide (synthetic phosphopeptide of the C-terminal region of FGFR1, TSNQEpYLDLSM). Description: SPR.
A further experiment has as its target FGFR1-3P(RD/VV) (UniProt P11362). Kind of experiment: ITC.
The target of another experiment is FGFR1-3P(VV/DD) (UniProt P11362). Description: ITC.
Experiment [5] deals with T1, isolated C-SH2 domain of PLCγ (rat).
T1 sequence (P10686 whole entry, looked up): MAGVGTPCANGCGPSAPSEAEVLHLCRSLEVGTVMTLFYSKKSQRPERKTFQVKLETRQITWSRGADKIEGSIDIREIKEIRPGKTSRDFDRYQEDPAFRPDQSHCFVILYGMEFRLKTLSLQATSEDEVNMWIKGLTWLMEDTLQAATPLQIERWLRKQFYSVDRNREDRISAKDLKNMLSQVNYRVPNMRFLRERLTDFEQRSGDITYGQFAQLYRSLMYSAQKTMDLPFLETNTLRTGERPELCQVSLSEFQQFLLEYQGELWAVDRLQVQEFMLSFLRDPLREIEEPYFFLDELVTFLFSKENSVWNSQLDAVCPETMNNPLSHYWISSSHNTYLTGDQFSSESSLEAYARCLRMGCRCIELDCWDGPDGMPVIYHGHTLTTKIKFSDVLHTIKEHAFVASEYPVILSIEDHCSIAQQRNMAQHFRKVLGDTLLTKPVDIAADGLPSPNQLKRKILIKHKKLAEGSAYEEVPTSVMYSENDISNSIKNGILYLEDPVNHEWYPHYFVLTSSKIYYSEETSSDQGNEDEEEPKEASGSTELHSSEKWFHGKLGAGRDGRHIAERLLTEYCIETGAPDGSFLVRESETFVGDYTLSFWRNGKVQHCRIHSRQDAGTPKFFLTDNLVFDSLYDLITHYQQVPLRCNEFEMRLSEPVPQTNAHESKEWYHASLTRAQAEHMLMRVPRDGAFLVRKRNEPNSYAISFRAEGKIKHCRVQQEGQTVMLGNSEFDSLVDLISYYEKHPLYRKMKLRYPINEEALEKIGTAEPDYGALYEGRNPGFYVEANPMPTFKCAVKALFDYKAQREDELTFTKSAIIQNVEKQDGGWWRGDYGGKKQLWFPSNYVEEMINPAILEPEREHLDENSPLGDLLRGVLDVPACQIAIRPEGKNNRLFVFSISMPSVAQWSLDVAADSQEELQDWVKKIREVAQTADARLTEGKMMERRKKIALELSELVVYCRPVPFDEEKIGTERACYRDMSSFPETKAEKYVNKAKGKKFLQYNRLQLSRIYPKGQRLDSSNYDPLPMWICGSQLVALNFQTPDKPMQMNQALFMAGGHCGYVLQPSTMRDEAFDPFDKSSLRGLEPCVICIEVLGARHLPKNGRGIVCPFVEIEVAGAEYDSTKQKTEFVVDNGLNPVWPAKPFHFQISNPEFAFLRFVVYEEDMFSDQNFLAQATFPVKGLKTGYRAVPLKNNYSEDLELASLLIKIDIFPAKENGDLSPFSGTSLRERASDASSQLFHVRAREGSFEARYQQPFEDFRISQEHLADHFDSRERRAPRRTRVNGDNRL
Kind of experiment: ITC.

The target in experiment [6] is T2, isolated N-SH2 domain of PLCγ (rat).
T2 sequence (P10686 whole entry, looked up): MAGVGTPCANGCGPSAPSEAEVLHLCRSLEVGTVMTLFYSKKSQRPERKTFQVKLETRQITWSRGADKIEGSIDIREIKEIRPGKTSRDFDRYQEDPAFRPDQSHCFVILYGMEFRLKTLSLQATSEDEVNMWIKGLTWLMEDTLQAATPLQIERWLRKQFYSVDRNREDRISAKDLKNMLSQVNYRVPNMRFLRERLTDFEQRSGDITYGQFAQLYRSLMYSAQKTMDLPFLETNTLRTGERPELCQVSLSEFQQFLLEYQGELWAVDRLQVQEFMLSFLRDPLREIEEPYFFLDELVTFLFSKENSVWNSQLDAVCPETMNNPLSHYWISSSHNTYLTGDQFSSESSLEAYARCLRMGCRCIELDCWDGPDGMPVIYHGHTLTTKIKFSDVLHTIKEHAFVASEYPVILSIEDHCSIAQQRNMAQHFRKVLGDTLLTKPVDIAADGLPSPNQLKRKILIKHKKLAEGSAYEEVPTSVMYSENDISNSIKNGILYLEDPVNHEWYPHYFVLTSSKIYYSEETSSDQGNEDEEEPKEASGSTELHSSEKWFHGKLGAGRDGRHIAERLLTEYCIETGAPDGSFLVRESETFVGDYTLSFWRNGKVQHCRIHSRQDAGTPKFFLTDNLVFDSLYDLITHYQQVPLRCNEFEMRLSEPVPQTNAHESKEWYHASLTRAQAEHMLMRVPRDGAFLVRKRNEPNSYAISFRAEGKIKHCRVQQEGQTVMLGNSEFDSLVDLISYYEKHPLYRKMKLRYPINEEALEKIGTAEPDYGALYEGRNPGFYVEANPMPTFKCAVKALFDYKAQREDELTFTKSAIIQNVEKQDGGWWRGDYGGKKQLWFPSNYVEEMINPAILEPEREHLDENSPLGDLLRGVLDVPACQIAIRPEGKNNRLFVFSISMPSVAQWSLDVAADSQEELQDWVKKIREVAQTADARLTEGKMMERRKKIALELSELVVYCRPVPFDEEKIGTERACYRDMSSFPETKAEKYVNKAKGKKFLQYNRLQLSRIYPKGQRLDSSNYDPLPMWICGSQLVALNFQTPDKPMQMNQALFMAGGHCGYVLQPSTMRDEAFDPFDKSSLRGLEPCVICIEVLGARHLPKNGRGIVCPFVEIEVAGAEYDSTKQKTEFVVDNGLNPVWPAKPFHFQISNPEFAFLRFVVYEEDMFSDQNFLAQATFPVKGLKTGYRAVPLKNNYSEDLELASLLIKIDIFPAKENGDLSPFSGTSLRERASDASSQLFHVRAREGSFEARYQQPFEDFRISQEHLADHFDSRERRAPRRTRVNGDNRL
Kind of experiment: ITC.

Square brackets hold non-standard residues; d marks the D form. pY = N[C@@H](Cc1ccc(OP(=O)(O)O)cc1)C(=O)O

For the molecule “FGFR1(Y766F): FGFR1 mutant Y766F in the primary binding site for the N-SH2 domain, expressed in L6 myoblasts”, the “tyrosine phosphorylation of PLCγ” value in the experiment on PLCγ pY783 is on record as “negligible tyrosine phosphorylation of PLCγ”.

For “WT FGFR1: wild type FGFR1 stably expressed in L6 myoblasts”, the “tyrosine phosphorylation of PLCγ” value with PLCγ pY783 is reported as “tyrosine phosphorylation of PLCγ”.

By Kd is commonly meant the free concentration of one partner at which half of the binding sites on the other are occupied at equilibrium, for simple one-to-one binding. In turn, “isolated C-SH2 domain of PLCγ (domain or fragment)” showed a Kd in experiment [1] of 490 nM.

On to “isolated N-SH2 domain of PLCγ (domain or fragment)”, for which the Kd is 44 nM in experiment [2]; 142 nM in [3]; 5670 nM in [4]; 33 nM in experiment [1]; 112 nM with FGFR1-3P(RD/VV); 221 nM in the experiment with FGFR1-3P(VV/DD).

On to {biotin‑XX}-TSNQE[pY]LDLSM-NH2 [pY766 peptide (synthetic phosphopeptide of the C-terminal region of FGFR1, TSNQEpYLDLSM)], for which the values for the Kd in experiment [5] and in experiment [6] were 1810 nM and 433 nM, respectively.
